Source: publication PMC8519809 (Cell Reports, 2021)

T1: MERS stem helix peptide (MERS-CoV)
T1 chain: DFQDELDEFFKNVST

T2: SARS-CoV-2 stem helix peptide (SARS-CoV-2)
T2 chain: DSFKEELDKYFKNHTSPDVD


Columns and labels:
[1] = target: T1, MERS stem helix peptide; assay: crystal structure
[2] = target: T2, SARS-CoV-2 stem helix peptide; assay: crystal structure

Row | Binder | binding result [1] | binding result [2]
1 | Fab22 (Fab, V domains shown) VH: EVQLQQPGPVLVKPGASVRMSCKASGYRITDNFMNWVKQSHGKSLEWIGIINPYNGGTKYNQKFKGKATLTVDTSSSTAYMELNSLTSEDSAVYYCTRVRGNDYHGRAMDYWGQGTSVTVSS VL: DVVLTQTPLSLPVNIGDQASISCKSTKSLLNRDGFTFLDWYLQKPGQSPQLLIYLVSNRFSGVPDRFSGSGSGTDFTLKISRVEAEDLGVYYCFQSNYLFTFGSGTKLEIK | binds | –
2 | LCmod-Fab22 (Fab, V domains shown) VH: EVQLQQPGPVLVKPGASVRMSCKASGYRITDNFMNWVKQSHGKSLEWIGIINPYNGGTKYNQKFKGKATLTVDTSSSTAYMELNSLTSEDSAVYYCTRVRGNDYHGRAMDYWGQGTSVTVSS VL: DVVLTQTPLSLPVNIGDQASISCKSTKSLLNRDGFTFLDWYLQKPGQSPQLLIYLVSNRFSGVPDRFSGSGSGTDFTLKISRVEAEDLGVYYCFQSNYLFTFGSGTKLEIK | – | binds
